The results in this text go back to patent US20260209334A1 (MAX PLANCK GESELLSCHAFT ZUR F RDERUNG DER WISSENSCHAFTEN E V, published 2026).

For assay [1], the target named is T1, human IL-17A with C-terminal Avi-tag, biotinylated, immobilized on BLI sensors (human, UniProt Q16552 24-155, biotin on the C-terminal Avi-tag (BirA)).
T1 construct: also called biotinylated IL-17A; not shown: C-terminal Avi-tag
In words: BLI, biotinylated IL-17A immobilized on streptavidin sensors, monovalent VHH as analyte (20, 100 nM), 2:1 heterogenous fit, low affinity component.

Assay [2] has as its target T1, human IL-17A with C-terminal Avi-tag, …. As to the kind of experiment: BLI, biotinylated IL-17A immobilized, monovalent VHH as analyte; 2:1 heterogenous model, high affinity component. For orientation: Biolayer interferometry detects binding as a change in optical thickness at a sensor tip.
In assay [3] the target is T2, human IL-17F with C-terminal Avi-tag, biotinylated, immobilized on BLI sensors (human, UniProt Q96PD4 31-163, biotin on the C-terminal Avi-tag (BirA)).
T2 construct: also called biotinylated IL-17F; not shown: C-terminal Avi-tag
T2 sequence: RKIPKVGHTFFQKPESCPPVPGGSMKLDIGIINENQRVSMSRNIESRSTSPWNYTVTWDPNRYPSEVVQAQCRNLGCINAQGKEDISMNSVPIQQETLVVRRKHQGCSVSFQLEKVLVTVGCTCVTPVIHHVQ
As to the kind of experiment: BLI, biotinylated IL-17F immobilized on streptavidin sensors, monovalent VHH as analyte (20, 100 nM), 2:1 heterogenous fit, low affinity component.

Assay [4] concerns the target T2, human IL-17F with C-terminal Avi-tag, …. In words: BLI, biotinylated IL-17F immobilized, monovalent VHH as analyte; 2:1 heterogenous model, high affinity component.
Assay [5] concerns the target recombinant human IL-17A/F (produced in CHO cells, R&D Systems 5837-IL) (human, UniProt Q16552 24-155; Q96PD4 31-163, limits assumed). As to the kind of experiment: cell-based or functional assay.
The target of assay [6] is T3, recombinant human IL-17F (produced in HEK cells, Proteintech HZ-1116) (human, UniProt Q96PD4 31-163).
T3 sequence (looked up): T2 sequence
As to the kind of experiment: cell-based or functional assay.

In assay [7] the target is recombinant human IL-17A (produced in HEK cells, Proteintech HZ-1113) (human, UniProt Q16552 24-155). As to the kind of experiment: cell-based or functional assay.
Chain of recombinant human IL-17A (produced in HEK cells, Proteintech HZ-1113) (Q16552 24-155 limits assumed): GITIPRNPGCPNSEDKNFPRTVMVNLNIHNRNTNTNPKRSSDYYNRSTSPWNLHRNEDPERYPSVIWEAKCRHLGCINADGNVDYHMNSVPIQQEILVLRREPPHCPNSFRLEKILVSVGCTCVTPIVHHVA
For assay [8], the target named is T4, human IL-17A/F heterodimer, bacterially expressed construct (human, UniProt Q16552 40-155; Q96PD4 39-163, limits assumed).
T4 construct: IL-17A unit with N68D, IL-17F unit with N83D and C137S, both with GSEDS spacer; already in the entries
In words: BLI, biotinylated VHH immobilized on streptavidin sensors, IL-17 as analyte (10, 20, 40 nM), mass transport fit; apparent value, avidity possible.

The target in assay [9] is T5, human IL-17F homodimer, bacterially expressed construct (residues 39-163 with GSEGE linker) (human, UniProt Q96PD4 39-163).
T5 construct: also called IL-17F dimer
T5 chain: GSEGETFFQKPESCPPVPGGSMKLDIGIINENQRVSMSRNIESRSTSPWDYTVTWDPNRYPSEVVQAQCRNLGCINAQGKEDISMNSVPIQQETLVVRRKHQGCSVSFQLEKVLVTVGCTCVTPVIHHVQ
Described as above.

For assay [10], the target named is T6, human IL-17A homodimer, bacterially expressed construct (residues 40-155 with GSEDS spacer) (human, UniProt Q16552 40-155).
T6 chain: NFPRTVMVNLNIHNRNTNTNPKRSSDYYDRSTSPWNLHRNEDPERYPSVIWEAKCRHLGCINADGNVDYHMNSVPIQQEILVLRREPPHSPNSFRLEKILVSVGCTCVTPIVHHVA
The description is as above.

Assay [11] deals with T4, human IL-17A/F heterodimer, bacterially …. In words: BLI, VHH immobilized, IL-17 as analyte; apparent KD with avidity; µM as printed (Table 3 uses pM).
Assay [12] has as its target T5, human IL-17F homodimer, bacterially …. The assay is described as above.
Assay [13] addresses T6, human IL-17A homodimer, bacterially …. The description is as above.
Assay [14] addresses T4, human IL-17A/F heterodimer, bacterially …. As to the kind of experiment: BLI, biotinylated VHH immobilized on streptavidin sensors, IL-17 as analyte (10, 20, 40 nM), mass transport fit; apparent value, avidity possible. This is another data set of the same source.
The target in assay [15] is T5, human IL-17F homodimer, bacterially …. The assay is described as above.
Assay [16] deals with T6, human IL-17A homodimer, bacterially …. Described as above.
In assay [17] the target is T1, human IL-17A with C-terminal Avi-tag, …. In words: BLI, biotinylated IL-17A immobilized on streptavidin sensors, monovalent VHH as analyte (25, 50, 100 nM), 2:1 heterogenous fit, high affinity component.

Substitutions are numbered along the chain they refer to. Like-named read-outs stand apart in the source and are kept apart here.

Chain of recombinant human IL-17A/F (produced in CHO cells, R&D Systems 5837-IL) (Q16552 24-155 limits assumed, chain 1 of 2, one chain of several): as the sequence (Q16552 24-155 limits assumed) above

B1: Bm44B04 (VHH)
VHH: QVQLVESGGGLVRTGGSLRLSCSVSGDISSQSAMGWYRQVPGRQRELVAMIHTTKGDTYYADSVKGRFTISRINANNTIYLQMNNLKPEDTAIYYCTHNEPGDLYMGQGTQVTVSS
notes: Class B, second generation
B1: the KD2 in assay [1] was determined as 25 nM; in assay [3] it was 20 nM. For the same molecule, the values for the Kd in assay [2] and in assay [4] were 0.6 nM and 0.35 nM, respectively. The “Neutralization potency, ranking from 1 = the best to 4 (HEK-Blue IL-17 reporter cells)” value (“Neutralization potency, ranking” below) in assay [5] was 1 rank; in assay [6] it was 2 rank; in [7], 2 rank.

B2: Bm42A09 (VHH)
VHH: B1 VHH with Q111L
notes: Class B, second generation
Regarding B2, the KD2 in assay [1] worked out at 300 nM. Further, the values for the Kd in assay [2] and in [4] were 0.8 nM and at most 0.01 nM, respectively. In addition, the “Neutralization potency, ranking” value stood at 1 rank in [5], 1 rank in [6] and 2 rank in assay [7].

B3: Bm44G07 (VHH)
VHH: B1 VHH with E6Q, R13Q, G66D, Y80H
notes: Class B, second generation
In the case of B3, the values for the KD2 in assay [1] and in assay [3] were 120 nM and 40 nM, respectively. The values for the Kd in assay [2] and in assay [4] were 3 nM and 1 nM, respectively. Further, the “Neutralization potency, ranking” value in assay [5] amounted to 4 rank; in assay [6], 1 rank; in [7] it was 3 rank.

B4: Bm18F11 with C-terminal Avi-Biotin-tag, biotinylated (VHH)
VHH: QVQLVESGGDLVQAGGSLRLSCAASGLTGSSYAMGWFRQAPGKEREFVAAISWISGDTKYTDSVKGRFTMSRDNAKKQVYLEMNSLKPEDTAVYYCNDMPYGLDTRMDEYVYWGQGTQVTVSS
modifications: biotin on the C-terminal Avi-tag (BirA)
notes: not shown: C-terminal Avi-Biotin-tag
Consider B4, for which the Kd in assay [8] was at most 0.01 nM; in [9] it was at most 0.01 nM; in [10], at most 0.01 nM; in assay [11] it was at most 20000 nM; in assay [12] it was at most 20000 nM; in [13], at most 20000 nM. Besides, the koff in [8], in assay [9] and in assay [10] was at most 1e-07 s⁻¹ each time. Moreover, the kon in assay [8] was 280000 M⁻¹ s⁻¹; in assay [9], 150000 M⁻¹ s⁻¹; in assay [10], 95000 M⁻¹ s⁻¹.

B5: Re42B04 with C-terminal Avi-Biotin-tag, biotinylated (VHH)
VHH: QVQLVESGGGLVQVGGSLRLSCEVSGLPVSSYAMGWFRQAPEKEREFVAAISWIGGDSRYAHFVKGRFTISRDNAKNTVHLQMDSLKPEDTAVYYCNDMPYGLDTRMDEYEYWGLGTQVTVSS
modifications: biotin on the C-terminal Avi-tag (BirA)
notes: as for B4
Consider B5, for which the Kd in [8] is at most 0.01 nM; in [9], at most 0.01 nM; in [10] it was at most 0.01 nM; in [11], at most 20000 nM. In addition, the koff in assay [8], in [9] and in [10] was at most 1e-07 s⁻¹ throughout. Also, the figures for the kon in assay [8], in assay [9] and in [10] were 240000 M⁻¹ s⁻¹, 140000 M⁻¹ s⁻¹ and 110000 M⁻¹ s⁻¹, respectively.

B6: Bm18B05 with C-terminal Avi-Biotin-tag, biotinylated (VHH)
VHH: QVQLVESGGGLVQPGGSLRLSCAVSGRTFSSYAMGWFRRPPGKEREFVAAISWSGGDTKYADFVTDRFTISRDDAKSTVYLQMNSLKPEDTAVYYCNDMPYGLDTRMDEYEYWGQGTQVTVSS
modifications: biotin on the C-terminal Avi-tag (BirA)
notes: as for B4
Regarding B6, the Kd was at most 0.01 nM in assay [8]; at most 0.01 nM in assay [9]; at most 0.01 nM in [10]; at most 20000 nM in assay [11]; at most 20000 nM in [12]; at most 20000 nM in assay [13]. Also, the koff in assay [8], in assay [9] and in assay [10] was at most 1e-07 s⁻¹ each time. Further, the results for the kon in assay [8], in assay [9] and in assay [10] were 120000 M⁻¹ s⁻¹, 86000 M⁻¹ s⁻¹ and 260000 M⁻¹ s⁻¹, respectively.

B7: Bm17B02 with C-terminal Avi-Biotin-tag, biotinylated (VHH)
VHH: QVQLVESGGGLVNTGGSLRLSCVVSGHTSEISAMGWYRQAPGKQRELVALITSRSGDTHYSDSVKGRFSISRDNAKNTMYLQMNSLNPDDTAVYYCVHNEPGHLYMAQGTQVTVSS
modifications: biotin on the C-terminal Avi-tag (BirA)
notes: as for B4
For B7, the Kd in assay [11] is at most 20000 nM; in [12], at most 20000 nM; in [13], at most 20000 nM; in [14], at most 0.01 nM; in assay [15], 0.02 nM; in [16], at most 0.01 nM. Besides, the results for the off-rate (koff) in assay [14], in [15] and in assay [16] were at most 1e-07 s⁻¹, 5.4e-05 s⁻¹ and at most 1e-07 s⁻¹, respectively. Also, the kon in [14] stood at 1.4e+06 M⁻¹ s⁻¹; in assay [15], 750000 M⁻¹ s⁻¹; in [16], 220000 M⁻¹ s⁻¹.

B8: Bm17B02 (VHH)
VHH: B7 VHH
notes: Class B, first generation; For the crystal it was made with a His14-ScSUMO tag that was cleaved off
As to B8, the Kd in assay [17] came to 0.7 nM.

B9: Re42F08 with C-terminal Avi-Biotin-tag, biotinylated (VHH)
VHH: B7 VHH with N13K, T14A
modifications: biotin on the C-terminal Avi-tag (BirA)
notes: as for B4
B9: the Kd in [11] is at most 20000 nM; in assay [12] it was at most 20000 nM; in assay [13], at most 20000 nM; in assay [14] it was at most 0.01 nM; in assay [15], 0.02 nM; in assay [16], at most 0.01 nM. Besides, the koff in [14], in [15] and in assay [16] was at most 1e-07 s⁻¹ throughout. The figures for the kon in [14], in assay [15] and in assay [16] were 510000 M⁻¹ s⁻¹, 500000 M⁻¹ s⁻¹ and 160000 M⁻¹ s⁻¹, respectively.

A word on the koff: it is the first-order rate constant of dissociation. The term kon denotes the second-order rate constant of association.
